Measured values: the supplement of paper PMC9112550, “Optimization of the antimicrobial peptide Bac7 by deep mutational scanning” (BMC Biology, 2022)

Each sequence was assayed on Escherichia coli TOP10 (assay: shrunken log2 fold change of peptide-encoding DNA abundance (4.5 h post-induction vs induction); higher = less antimicrobial activity (less host growth inhibition)). Conditions: time post-induction: 4.5 h; library: site-saturation at positions 5, 18, 19, 20.
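Note: peptides expressed intracellularly from a pBAD plasmid library in pooled LB shake-flask culture, induced with 0.3% L-arabinose, DNA abundance read by NGS, three biological replicates, DESeq2 with apeglm shrinkage.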

Row | Sequence | shrunken log2 fold change
1 | RRIRGRPPRLPRPRPRPGWKPRP | 0.0657
2 | RRIRERPPRLPRPRPRPKDCPRP | 0.033
3 | RRIRSRPPRLPRPRPRPHQFPRP | -0.124
4 | RRIRMRPPRLPRPRPRPRNSPRP | -0.294
5 | RRIRGRPPRLPRPRPRPGPDPRP | 0.62
6 | RRIRCRPPRLPRPRPRPGKMPRP | -0.055
7 | RRIRNRPPRLPRPRPRPKDRPRP | -0.0176
8 | RRIRNRPPRLPRPRPRPSMYPRP | -0.309
9 | RRIRHRPPRLPRPRPRPYLEPRP | -0.0394
10 | RRIRLRPPRLPRPRPRPFGLPRP | -0.114
11 | RRIRNRPPRLPRPRPRPYLVPRP | -0.161
12 | RRIRWRPPRLPRPRPRPHVNPRP | -0.315
13 | RRIRARPPRLPRPRPRPSGIPRP | 0.0311
14 | RRIRGRPPRLPRPRPRPYYVPRP | -0.0871
15 | RRIRLRPPRLPRPRPRPGPWPRP | 0.325
16 | RRIRCRPPRLPRPRPRPNVIPRP | -0.374
17 | RRIRDRPPRLPRPRPRPYKTPRP | -0.0411
18 | RRIRIRPPRLPRPRPRPWMSPRP | -0.266
19 | RRIRKRPPRLPRPRPRPYRTPRP | -0.224
20 | RRIRTRPPRLPRPRPRPGQHPRP | 0.351
21 | RRIRLRPPRLPRPRPRPERSPRP | 0.293
22 | RRIRKRPPRLPRPRPRPGDSPRP | 0.163
23 | RRIRYRPPRLPRPRPRPDGMPRP | 0.0112
24 | RRIRFRPPRLPRPRPRPFPIPRP | -0.184
25 | RRIRKRPPRLPRPRPRPWWKPRP | -0.103

Row | Sequence | shrunken log2 fold change
26 | RRIRARPPRLPRPRPRPRQVPRP | 0.2
27 | RRIRYRPPRLPRPRPRPPFFPRP | -0.0804
28 | RRIRSRPPRLPRPRPRPHVCPRP | 0.0517
29 | RRIRNRPPRLPRPRPRPYQYPRP | 0.0162
30 | RRIRRRPPRLPRPRPRPQYKPRP | -0.401
31 | RRIRWRPPRLPRPRPRPVYSPRP | -0.104
32 | RRIRCRPPRLPRPRPRPAYEPRP | -0.28
33 | RRIRSRPPRLPRPRPRPCTYPRP | -0.454
34 | RRIRIRPPRLPRPRPRPEKTPRP | -0.0512
35 | RRIRNRPPRLPRPRPRPEQLPRP | 0.389
36 | RRIRVRPPRLPRPRPRPVWNPRP | 0.152
37 | RRIRYRPPRLPRPRPRPTALPRP | -0.0277
38 | RRIRQRPPRLPRPRPRPYYCPRP | -0.332
39 | RRIRKRPPRLPRPRPRPCEEPRP | 0.56
40 | RRIRIRPPRLPRPRPRPYFHPRP | -0.835
41 | RRIRARPPRLPRPRPRPYDFPRP | -0.772
42 | RRIRFRPPRLPRPRPRPPYIPRP | -0.282
43 | RRIRVRPPRLPRPRPRPSYNPRP | -0.485
44 | RRIRKRPPRLPRPRPRPTEGPRP | 0.869
45 | RRIRMRPPRLPRPRPRPPTAPRP | 1.03
46 | RRIRLRPPRLPRPRPRPKGIPRP | -0.0776
47 | RRIRFRPPRLPRPRPRPNRSPRP | -0.299
48 | RRIRRRPPRLPRPRPRPWCPPRP | -0.0442
49 | RRIRHRPPRLPRPRPRPPAPPRP | 0.466
50 | RRIRKRPPRLPRPRPRPLRFPRP | 0.896

Row | Sequence | shrunken log2 fold change
51 | RRIRYRPPRLPRPRPRPFYEPRP | -1.2
52 | RRIRLRPPRLPRPRPRPNRKPRP | -0.223
53 | RRIRHRPPRLPRPRPRPCESPRP | 0.0295
54 | RRIRYRPPRLPRPRPRPNIPPRP | -1.09
55 | RRIRVRPPRLPRPRPRPALIPRP | 0.342
56 | RRIRGRPPRLPRPRPRPCRQPRP | 0.436
57 | RRIRQRPPRLPRPRPRPDFFPRP | 0.00508
58 | RRIRFRPPRLPRPRPRPTRVPRP | 0.616
59 | RRIRKRPPRLPRPRPRPAETPRP | 0.336
60 | RRIRCRPPRLPRPRPRPIFHPRP | -0.333
61 | RRIRVRPPRLPRPRPRPSCQPRP | -0.643
62 | RRIRSRPPRLPRPRPRPWAVPRP | -0.0517
63 | RRIRCRPPRLPRPRPRPCCCPRP | -0.224
64 | RRIRTRPPRLPRPRPRPELYPRP | -0.258
65 | RRIRFRPPRLPRPRPRPWCWPRP | 0.155
66 | RRIRGRPPRLPRPRPRPWGDPRP | 0.41
67 | RRIRNRPPRLPRPRPRPRMCPRP | 0.138
68 | RRIRCRPPRLPRPRPRPPWHPRP | 0.0193
69 | RRIRERPPRLPRPRPRPHIEPRP | 0.0737
70 | RRIRYRPPRLPRPRPRPMMIPRP | -0.00702
71 | RRIRPRPPRLPRPRPRPEILPRP | 0.0928
72 | RRIRLRPPRLPRPRPRPYTRPRP | -0.0648
73 | RRIRHRPPRLPRPRPRPDKCPRP | -0.0295
74 | RRIRQRPPRLPRPRPRPHNAPRP | -0.0184
75 | RRIRIRPPRLPRPRPRPMILPRP | -0.131

Row | Sequence | shrunken log2 fold change
76 | RRIRNRPPRLPRPRPRPADYPRP | -0.24
77 | RRIRYRPPRLPRPRPRPKWMPRP | -0.27
78 | RRIRQRPPRLPRPRPRPGCHPRP | -0.11
79 | RRIRIRPPRLPRPRPRPKHPPRP | -0.0675
80 | RRIRWRPPRLPRPRPRPDPAPRP | 0.663
81 | RRIRRRPPRLPRPRPRPEEDPRP | -0.0235
82 | RRIRQRPPRLPRPRPRPEKWPRP | -0.191
83 | RRIRQRPPRLPRPRPRPVWEPRP | 0.0571
84 | RRIRRRPPRLPRPRPRPELSPRP | 0.0649
85 | RRIRMRPPRLPRPRPRPMLAPRP | 2.84
86 | RRIRVRPPRLPRPRPRPIYQPRP | -0.27
87 | RRIRDRPPRLPRPRPRPKNYPRP | -0.303
88 | RRIRARPPRLPRPRPRPNRHPRP | 0.0991
89 | RRIRMRPPRLPRPRPRPGWIPRP | -0.0121
90 | RRIRSRPPRLPRPRPRPDVPPRP | -0.0936
91 | RRIRLRPPRLPRPRPRPNCEPRP | -0.0439
92 | RRIRYRPPRLPRPRPRPGFEPRP | -0.127
93 | RRIRFRPPRLPRPRPRPPFTPRP | 0.0652
94 | RRIRSRPPRLPRPRPRPSLNPRP | -0.142
95 | RRIRYRPPRLPRPRPRPGRWPRP | 0.475
96 | RRIRRRPPRLPRPRPRPLAEPRP | 0.654
97 | RRIRVRPPRLPRPRPRPETNPRP | 0.0778
98 | RRIRDRPPRLPRPRPRPKIQPRP | 0.0161
99 | RRIRNRPPRLPRPRPRPQKGPRP | 0.0289
100 | RRIRFRPPRLPRPRPRPTLDPRP | 0.0939

Row | Sequence | shrunken log2 fold change
101 | RRIRVRPPRLPRPRPRPANNPRP | -0.272
102 | RRIRARPPRLPRPRPRPDHFPRP | -0.148
103 | RRIRVRPPRLPRPRPRPCHRPRP | -0.0177
104 | RRIRMRPPRLPRPRPRPGVYPRP | 0.104
105 | RRIRYRPPRLPRPRPRPEYNPRP | -0.15
106 | RRIRIRPPRLPRPRPRPQCVPRP | -0.0555
107 | RRIRGRPPRLPRPRPRPGKTPRP | 0.0643
108 | RRIRFRPPRLPRPRPRPNTCPRP | -0.483
109 | RRIRVRPPRLPRPRPRPKQYPRP | -0.558
110 | RRIRERPPRLPRPRPRPDLAPRP | 0.27
111 | RRIRIRPPRLPRPRPRPGGTPRP | -0.439
112 | RRIRARPPRLPRPRPRPKSNPRP | 0.253
113 | RRIRCRPPRLPRPRPRPHFPPRP | -0.0893
114 | RRIRARPPRLPRPRPRPICWPRP | 0.231
115 | RRIRQRPPRLPRPRPRPTMCPRP | -0.0814
116 | RRIRVRPPRLPRPRPRPQVYPRP | -0.0131
117 | RRIRSRPPRLPRPRPRPEMQPRP | 0.0419
118 | RRIRCRPPRLPRPRPRPNENPRP | -0.0814
119 | RRIRRRPPRLPRPRPRPSDHPRP | -0.0811
120 | RRIRLRPPRLPRPRPRPEGVPRP | 0.568
121 | RRIRHRPPRLPRPRPRPTEGPRP | -0.00285
122 | RRIRHRPPRLPRPRPRPDRHPRP | -0.159
123 | RRIRPRPPRLPRPRPRPFCPPRP | -0.345
124 | RRIRKRPPRLPRPRPRPIFCPRP | 0.387
125 | RRIRGRPPRLPRPRPRPPVKPRP | 0.678

Row | Sequence | shrunken log2 fold change
126 | RRIRLRPPRLPRPRPRPVTEPRP | 0.0237
127 | RRIRYRPPRLPRPRPRPHYFPRP | -0.833
128 | RRIRTRPPRLPRPRPRPAKCPRP | 0.0582
129 | RRIRQRPPRLPRPRPRPCIFPRP | -0.142
130 | RRIRERPPRLPRPRPRPPYYPRP | -0.433
131 | RRIRARPPRLPRPRPRPMEEPRP | -0.0115
132 | RRIRPRPPRLPRPRPRPKGNPRP | -0.097
133 | RRIRMRPPRLPRPRPRPWRYPRP | 0.166
134 | RRIRMRPPRLPRPRPRPRKWPRP | 0.363
135 | RRIRHRPPRLPRPRPRPANQPRP | -0.0712
136 | RRIRHRPPRLPRPRPRPHFPPRP | -0.324
137 | RRIRKRPPRLPRPRPRPHVQPRP | -0.0829
138 | RRIRCRPPRLPRPRPRPCAWPRP | 0.0576
139 | RRIRLRPPRLPRPRPRPTIEPRP | 0.033
140 | RRIRYRPPRLPRPRPRPLTFPRP | -0.696
141 | RRIRTRPPRLPRPRPRPCKIPRP | -0.03
142 | RRIRTRPPRLPRPRPRPLFRPRP | -0.353
143 | RRIRDRPPRLPRPRPRPWPPPRP | 0.32
144 | RRIRCRPPRLPRPRPRPAWNPRP | 0.035
145 | RRIRIRPPRLPRPRPRPKWMPRP | -0.178
146 | RRIRPRPPRLPRPRPRPACAPRP | 0.593
147 | RRIRWRPPRLPRPRPRPICQPRP | -0.146
148 | RRIRIRPPRLPRPRPRPVHEPRP | -0.139
149 | RRIRQRPPRLPRPRPRPAPSPRP | 0.492
150 | RRIRTRPPRLPRPRPRPACPPRP | 0.178
